Measured values taken from patent US20220372168A1.

Columns and labels:
Human FcγRI (human) = Human FcγRI (human) (UniProt P12314); test: SPR (Biacore T200), His-tagged FcγR captured on anti-penta-His chip, antibody injected
[1] = target: Human FcγRIIIa (F176) (human) (UniProt P08637); test: as above
[2] = target: Human FcγRIIIa (V176) (human) (UniProt P08637); test: as above
Human FcγRIIIb (human) = Human FcγRIIIb (human) (UniProt O75015); test: as above
[3] = target: Human FcγRIIa (H131) (human) (UniProt P12318); test: as above
Human FcγRIIa (H131) (human), sequence (P12318 36-218 limits assumed): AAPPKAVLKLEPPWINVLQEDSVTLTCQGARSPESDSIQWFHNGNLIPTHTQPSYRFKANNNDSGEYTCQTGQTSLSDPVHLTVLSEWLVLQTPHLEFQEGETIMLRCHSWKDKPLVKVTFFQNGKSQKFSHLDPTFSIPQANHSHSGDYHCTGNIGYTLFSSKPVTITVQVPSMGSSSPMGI

[4] = target: Human FcγRIIa (R131) (human) (UniProt P12318); test: as above
Human FcγRIIa (R131) (human), sequence (P12318 36-218 H167R limits assumed): as the sequence (P12318 36-218 limits assumed) above, with H132R counted along it

Human FcγRIIb (human) [5] = target: Human FcγRIIb (human) (UniProt P31994); test: as above
Human FcγRIIb (human), sequence (P31994 46-217 limits assumed): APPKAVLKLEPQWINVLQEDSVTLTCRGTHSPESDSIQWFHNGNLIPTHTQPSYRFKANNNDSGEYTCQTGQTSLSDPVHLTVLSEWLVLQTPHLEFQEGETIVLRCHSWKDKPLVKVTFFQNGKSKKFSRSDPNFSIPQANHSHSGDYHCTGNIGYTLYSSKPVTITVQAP

[6] = target: Human FcγRIIa (H131) (human) (UniProt P12318); test: SPR (Biacore T200), His-tagged FcγR captured on anti-penta-His chip, kinetic or steady-state fit
[7] = target: Human FcγRIIa (R131) (human) (UniProt P12318); test: as above
Human FcγRIIb (human) [8] = target: Human FcγRIIb (human) (UniProt P31994); test: as above

Human FcγRIIIa (F176) (human), sequence (P08637 17-208 limits assumed): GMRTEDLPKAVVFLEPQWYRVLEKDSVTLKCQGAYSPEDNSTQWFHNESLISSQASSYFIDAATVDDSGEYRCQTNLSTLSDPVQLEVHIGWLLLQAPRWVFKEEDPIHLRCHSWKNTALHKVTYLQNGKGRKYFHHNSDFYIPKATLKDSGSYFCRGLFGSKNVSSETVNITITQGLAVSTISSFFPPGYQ
Human FcγRIIIa (V176) (human), sequence (P08637 17-208 F176V limits assumed): as the sequence (P08637 17-208 limits assumed) above, with F160V counted along it
Human FcγRI (human), sequence (P12314 16-288 limits assumed): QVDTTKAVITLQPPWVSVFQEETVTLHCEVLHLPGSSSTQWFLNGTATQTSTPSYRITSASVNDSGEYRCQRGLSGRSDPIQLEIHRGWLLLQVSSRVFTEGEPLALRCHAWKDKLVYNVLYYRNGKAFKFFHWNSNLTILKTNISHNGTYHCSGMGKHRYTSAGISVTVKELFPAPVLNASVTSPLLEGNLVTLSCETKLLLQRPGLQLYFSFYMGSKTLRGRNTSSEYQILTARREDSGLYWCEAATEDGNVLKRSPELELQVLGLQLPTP
Human FcγRIIIb (human), sequence (O75015 17-200 limits assumed): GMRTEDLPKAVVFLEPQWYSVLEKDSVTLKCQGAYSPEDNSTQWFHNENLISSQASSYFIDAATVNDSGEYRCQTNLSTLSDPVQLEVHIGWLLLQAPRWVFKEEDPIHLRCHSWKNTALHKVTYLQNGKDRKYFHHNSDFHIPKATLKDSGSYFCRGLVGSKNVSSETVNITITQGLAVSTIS

- binding signal (RU) (Human FcγRI (human)): 36 RU
- binding signal (RU) [1]: 6 RU
- binding signal (RU) [2]: 34 RU
- binding signal (RU) (Human FcγRIIIb (human)): -8 RU
- binding signal (RU) [3]: 419 RU
- binding signal (RU) [4]: 340 RU
- binding signal (RU) (Human FcγRIIb (human) [5]): 226 RU
- Kd [6]: 1.61 µM
- Kd [7]: 1.32 µM
- Kd (Human FcγRIIb (human) [8]): 12.3 µM
B1: mAb3 (antibody, part only; not given: variable domains, not shown: another chain or arm of the molecule)
Fc: ESKYGPPCPPCPAPPVAGPSVFLFPPKPKDTLMISRTPEVTCVVVDVSQEDPEVQFNWYVDGVEVHNAKTKPREEQFNSTYRVVSVLTVLHQDWLNGKEYKCKVSNKGLPSSIEKTISKAKGQPREPQVYTLPPSQEEMTKNQVSLTCLVKGFYPSDIAVEWESNGQPENNYKTTPPVLDSDGSFFLYSRLTVDKSRWQEGNVFSCSVMHEALHNHYTQKSLSLSLGK
